The numbers were not newly measured in PMC8698604, which cites them from elsewhere.

A word on the Kd: it is the equilibrium constant for the complex coming apart.

Series [1] concerns the target plasmin (Homo sapiens) (UniProt P00747).
The target in series [2] is plasminogen (Homo sapiens) (UniProt P00747).
Series [3] deals with plasmin (Homo sapiens) (UniProt P00747). This is another data set of the same source.
Series [4] concerns the target t-PA (Homo sapiens) (UniProt P00750).
Series [5] shares this target. This is another data set of the same source.
The target in series [6] is plasminogen (Homo sapiens) (UniProt P00747). This is another data set of the same source.
Series [7] addresses plasmin (Homo sapiens) (UniProt P00747). The source holds these as a separate data set.
Series [8] concerns the target plasminogen (Homo sapiens) (UniProt P00747). In words: fluorescence.
Series [9] concerns the target fibrin (Homo sapiens) (UniProt P02671).
Series [10] shares this target. The source holds these as a separate data set.

Read-outs that look alike come from different tables or passages of the source.

Chain of UniProt P00750 (P00750 36-562): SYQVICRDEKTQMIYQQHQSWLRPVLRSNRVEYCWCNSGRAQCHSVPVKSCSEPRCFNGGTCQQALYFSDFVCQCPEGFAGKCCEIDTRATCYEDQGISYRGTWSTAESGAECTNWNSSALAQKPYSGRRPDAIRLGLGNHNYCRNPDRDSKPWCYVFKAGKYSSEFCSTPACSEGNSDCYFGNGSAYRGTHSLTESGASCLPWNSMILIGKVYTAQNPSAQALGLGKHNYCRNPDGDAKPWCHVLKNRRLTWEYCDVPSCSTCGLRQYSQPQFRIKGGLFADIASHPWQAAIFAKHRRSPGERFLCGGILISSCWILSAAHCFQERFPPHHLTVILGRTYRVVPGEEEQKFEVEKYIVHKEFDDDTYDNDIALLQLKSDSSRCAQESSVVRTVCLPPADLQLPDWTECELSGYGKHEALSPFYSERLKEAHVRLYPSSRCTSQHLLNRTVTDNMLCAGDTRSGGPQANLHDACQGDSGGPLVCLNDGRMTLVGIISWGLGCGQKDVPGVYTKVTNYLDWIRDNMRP

As to ANXA2 (from UniProt P07355), the Kd with plasmin (Homo sapiens) [1] is 780 nM.
Turning to S100A10 (from UniProt P60903), the figures for the Kd (in [2]; in the series with plasmin (Homo sapiens) [3]; in the series with t-PA (Homo sapiens) [4]) were 1810 nM, 360 nM and 450 nM, respectively.
Regarding “AIIt (ANXA2/S100A10) (from UniProt P07355)”, the Kd with t-PA (Homo sapiens) [5] is 680 nM; in series [6], 110 nM; in the series with plasmin (Homo sapiens) [7], 75 nM; in [8], 1000 nM.
plasminogen (from UniProt P00747): the values for the Kd with fibrin (Homo sapiens) [9] and in the series with fibrin (Homo sapiens) [10] were 30000 nM and 300 nM, respectively.
